Consider two molecules from patent CN114874324A (dated 2022).

In assay [1] the target is T1, 可溶性LAG-3蛋白标准品(R&D Systems) (human, UniProt P18627 23-450, limits assumed).
T1 construct: also called sLAG-3蛋白; sLAG-3
T1 sequence (looked up): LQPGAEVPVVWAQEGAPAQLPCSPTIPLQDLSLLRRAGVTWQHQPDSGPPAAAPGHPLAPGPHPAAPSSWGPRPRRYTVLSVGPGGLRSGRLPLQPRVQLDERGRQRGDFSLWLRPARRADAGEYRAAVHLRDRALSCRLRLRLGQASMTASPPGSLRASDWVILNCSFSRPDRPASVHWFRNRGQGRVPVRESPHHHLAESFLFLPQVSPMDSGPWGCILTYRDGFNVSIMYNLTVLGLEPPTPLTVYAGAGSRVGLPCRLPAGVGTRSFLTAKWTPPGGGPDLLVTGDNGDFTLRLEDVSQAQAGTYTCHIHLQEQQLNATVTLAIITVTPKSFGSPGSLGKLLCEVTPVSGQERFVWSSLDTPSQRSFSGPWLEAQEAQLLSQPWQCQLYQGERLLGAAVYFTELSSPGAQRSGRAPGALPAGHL
Kind of assay: sandwich ELISA, wells pre-coated with 4E12. In general terms: An ELISA detects its analyte on a solid surface through an enzyme-linked reagent.

Assay [2] deals with T1, 可溶性LAG-3蛋白标准品(R&D Systems). Kind of assay: sandwich ELISA of the kit (4F4 and 4E12 as the antibody pair).

B1: LAG-3-4E12抗体 (antibody, V domains shown)
VH: EVKLVESGGGLVQPGGSLKLSCAVSGFAIRSYDMSWVRQTPEKRLEWVATISSGGSYSYYPDSVKGRFTISRDNARNTLYLQMSSLRSEDTALYYCASLSTAPAYWGQGTLVTVSA
VL: DIVMTQSQKFMSTSVGDRVSVTCKASQNVGTNVAWYQQKPGQSPKALIYSASYRYSGVPDRFTGSGSGTDFTLTISNVQSEDLAEYFCQQYNTYPHMYTFGGGTKLEIK
notes: Mouse (BALB/c) hybridoma monoclonal antibody; also called LAG-3-4E12单克隆抗体; 抗LAG-3单抗(克隆:4E12)
Consider B1, for which the binding result in assay [1] is on record as “binds”.

B2: LAG-3-4F4抗体 (antibody, V domains shown)
VH: QLQLKESGPEVVRPGVSVKISCKGSGYTFTDYAMYWVKQSHAKSLEWIGVISTYNGNTNYNQRFKGKATMTVDKSSSTAYMELARLTSEDSAIYYCARERGAMDYWGQGTSVTVSS
VL: DVLMTQTPLSLPVSLGDQASISCRSSQSIVHNNGNTYLEWYLQKPGQSPKLLIYKVSSRFSGVPDRFSGSGSGTDFTLKISRVEAEDLGIYYCFQGSHVPPTFGGGTKLEIK
notes: Mouse (BALB/c) hybridoma monoclonal antibody; also called 抗人LAG-3-4F4单克隆抗体; LAG-3包被抗体
As for B2, the binding result in assay [2] was “binds”.
